Source: paper PMC4823717
Changes are numbered by the printed parent chain. In names and notes the source's numbering stands.

Tests used:
[1] = target: Ffh (the protein subunit of signal recognition particle, SRP), wild type (UniProt P0AGD7); test: in vivo photo-cross-linking ([35S]Met pulse-labeling, immunoprecipitation, SDS-PAGE, phosphorimaging); conditions: 30 °C, M9-based medium with 1 mM pBPA, 1 mM IPTG for 6 min, [35S]Met for 1 min, UV irradiation; parent: 100; read off a plot
[2] = target: T1, Ffh (the protein subunit of signal recognition particle, SRP), wild type, P0AGD7; test: as above; conditions: chain shown with the change; 30 °C, M9-based medium with 1 mM pBPA, 1 mM IPTG for 6 min, [35S]Met for 1 min, UV irradiation; parent: 100; read off a plot
T1 chain: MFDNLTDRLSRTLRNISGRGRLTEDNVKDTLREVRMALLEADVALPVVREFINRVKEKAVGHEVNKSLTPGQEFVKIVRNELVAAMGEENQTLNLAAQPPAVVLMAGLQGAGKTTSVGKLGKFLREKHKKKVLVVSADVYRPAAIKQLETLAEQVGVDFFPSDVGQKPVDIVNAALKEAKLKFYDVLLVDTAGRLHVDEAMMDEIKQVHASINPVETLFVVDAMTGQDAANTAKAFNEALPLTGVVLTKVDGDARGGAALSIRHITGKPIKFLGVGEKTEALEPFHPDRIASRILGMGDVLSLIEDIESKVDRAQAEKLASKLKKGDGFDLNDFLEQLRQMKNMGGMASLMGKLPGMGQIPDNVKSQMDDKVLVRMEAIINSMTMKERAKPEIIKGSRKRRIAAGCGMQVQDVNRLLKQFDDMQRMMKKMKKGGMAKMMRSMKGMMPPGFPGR

Molecule: His6-σ32 K51pBPA (from UniProt P0AGB3) I54N
- percent of parent (parent (no dysregulation mutation) = 100) [1]: 53

Molecule: His6-σ32 K51pBPA (from UniProt P0AGB3) R91P
- percent of parent (parent (no dysregulation mutation) = 100) [1]: 78

Molecule: His6-σ32 T52pBPA (from UniProt P0AGB3) I54N
- percent of parent (parent (no dysregulation mutation) = 100) [1]: 43

Molecule: His6-σ32 T52pBPA (from UniProt P0AGB3) R91P
- percent of parent (parent (no dysregulation mutation) = 100) [1]: 76

Molecule: MTDKMQSLALAPVGNLDSYIRAANAWPMLSADEERALAEKLHYHGDLEAD [His6-σ32 K51pBPA, P0AGB3 A50D]
- percent of parent (parent (no dysregulation mutation) = 100) [2]: 7.6

B1: His6-σ32 T52pBPA, P0AGB3 K51E (protein)
chain: MTDKMQSLALAPVGNLDSYIRAANAWPMLSADEERALAEKLHYHGDLEAAE
- percent of parent (parent (no dysregulation mutation) = 100) [2]: 95

B2: His6-σ32 T52pBPA, P0AGB3 A50D (protein)
chain: B1 chain with A50D, E51K
- percent of parent (parent (no dysregulation mutation) = 100) [2]: 36
